# From patent publication US20230392126A1, “TISSUE ORGANOIDS” (priority 2016, published 2023)
# B1: hBChE: modified human butyrylcholinesterase (E30-6, SEQ ID NO: 41), cocaine hydrolase, expressed from engineered epidermal cells / skin grafts (protein)
# chain: MHSKVTIICIRFLFWFLLLCMLIGKSHTEDDIIIATKNGKVRGMNLTVFGGTVTAFLGIPYAQPPLGRLRFKKPQSLTKWSDIWNATKYANSCCQNIDQSFPGFHGSEMWNPNTDLSEDCLYLNVWIPAPKPKNATVLIWIYGGGFQTGTSSLHVYDGKFLARVERVIVVSMNYRVGALGFLALPGNPEAPGNMGLFDQQLALQWVQKNIAAFGGNPKSVTLFGESSGAASVSLHLLSPGSHSLFTRAILQSGSANAPWAVTSLYEARNRTLNLAKLTGCSRENETEIIKCLRNKDPQEILLNEAFVVPYGTALGVNFGPTVDGDFLTDMPDILLELGQFKKTQILVGVNKDEGTWFLVGGAPGFSKDNNSIITRKEFQEGLKIFFPGVSEFGKESILFHYTDWVDDQRPENYREALGDVVGDYNFICPALEFTKKFSEWGNNAFFYYFEHRSSKLPWPEWMGVMHGYEIEFVFGLPLERRDNYTKAEEILSRSIVKRWANFAKYGNPNETQNNSTSWPVFKSTEQKYLTLNTESTRIMTKLRAQQCRFWTSFFPKVLEMTGNIDEAEWEWKAGFHRWNNYMMDWKNQFNDYTSKKESCVGL
# modifications: Human mutant BChE
# Legend:
# [1] = system: human epidermal keratinocytes; test: Cell proliferation and differentiation of engineered human epidermal cells in vitro; assay type: cell-based
# Description: Primary human neonatal epidermal keratinocytes were obtained from Thermo Fischer® (C0015C), and cultured with Epilife® medium (Thermo Fischer, M-EPICF-500) with manufacturer's recommended procedures. Calcium shift was performed to induce differentiation of primary keratinocytes by increasing the calcium concentration in culture media to 1.5 mM.
# Propidium iodide (PI) staining followed by flow cytometry were used to determine the effect of cell cycle profiles. Mouse and human epidermal cells were cultured in two 6 cm cell culture dish for 24 hours, respectively. Cells were trypsinized, and 1×10^5 cells from each dish were collected, followed by one PBS wash. […] After staining, the cells were analyzed immediately using flow cytometer BD FACSCanto™ II (BD Biosciences, San Jose, CA) with an excitation wavelength at 488 nm and emission at 585 nm. DNA content and histograms of cell cycle distribution were analyzed using FlowJo™ software, version 10 (FLOWJO LLC, OR).
# Western blotting was performed as described previously (Blanpain et al.). […] Visualization and quantification was carried out with the LI-COR Odyssey® scanner and software (LI-COR Biosciences).
# Propidium iodide (PI) staining followed by flow cytometry were used to determine the effect of cell cycle profiles. […] DNA content and histograms of cell cycle distribution were analyzed using FlowJo™ software, version 10 (FLOWJO LLC, OR). […]
# [2] = system: human epidermal cells; assay type: cell-based
# [3] = Extinction and ethanol-induced reinstatement of CPP; assay type: in vivo, mouse; settings: 1 g/kg ethanol i.p., specificity control
# Description: Extinction and reinstatement of CPP: Following CPP acquisition, mice underwent extinction, in which the procedure was identical to that in the test day. In each extinction day, mice were allowed to explore the entire chambers for 20 min and time spent in each area was recorded. Extinction was performed until the CPP decreased to a level that was not different from that of the pretest in consecutive two days. On the following day of the last extinction, mice underwent reinstatement procedures, in which mice that were trained for cocaine CPP received an i.p. injection of 15 mg/kg cocaine, and mice that were trained for ethanol CPP received an i.p. injection of 1 g/kg ethanol. Immediate after injection, mice were allowed to explore the entire chambers for 20 min and time spent in each area was recorded.
# Specific methods: One group of GhBChE and one group of GWT mice (n=9 in each group) were trained for cocaine CPP 7 days after engraftment (FIG. 18A). Mice underwent pretest on Day 1, four days of cocaine conditioning day 2 to Day 5, and CPP test on Day 6. One group of GhBChE and one group of GWT mice (n=8 in each group) were trained for ethanol CPP 7 days after engraftment (FIG. 18B). Mice underwent pretest on Day 1, four ethanol conditioning day 2 to Day 5, and CPP test on Day 6. […]
molecule,measurement,setting,value
B1,effect of expression on cell proliferation / differentiation in vitro,[1],did not significantly change cell proliferation
same,hBChE production,[2],strong hBChE production
same,ethanol-induced reinstatement of CPP,[3],similarly reinstated in both GhBChE and GWT mice
